Measured values from US20180346602A1.
Where a chain is given by its changes, count along the chain named. Blank lines part the entries; values can stand above or below the binder they belong to.

Tests used:
[1] = target: anti-VEGF/ANG2 antibody (IgG1 subclass with mutations P329G/L234A/L235A/I253A/H310A/H435A) [IgG part: P01857]; test: sandwich ELISA in serum; capture M1.3.17, tracer M1.7.24; anti-VEGF/ANG2 antibody 39.0625 ng/mL
[2] = target: anti-VEGF/ANG2 antibody (IgG1 subclass with mutations P329G/L234A/L235A/I253A/H310A/H435A) [IgG part: P01857]; test: sandwich ELISA in serum; capture M1.3.17, tracer M1.7.24; anti-VEGF/ANG2 antibody 312.5 ng/mL
[3] = target: anti-VEGF/ANG2 antibody (IgG1 subclass with mutations P329G/L234A/L235A/I253A/H310A/H435A) [IgG part: P01857]; test: bridging ELISA; biotinylated and digoxigenylated anti-VEGF/ANG2 antibody bridged by M1.3.17 at 62.5 ng/mL
[4] = target: anti-VEGF/ANG2 antibody (IgG1 subclass with mutations P329G/L234A/L235A/I253A/H310A/H435A) [IgG part: P01857]; test: sandwich ELISA in serum; capture M1.3.17, tracer M1.7.24; anti-VEGF/ANG2 antibody 156.25 ng/mL
[5] = target: anti-VEGF/ANG2 antibody (IgG1 subclass with mutations P329G/L234A/L235A/I253A/H310A/H435A) [IgG part: P01857]; test: bridging ELISA; biotinylated and digoxigenylated anti-VEGF/ANG2 antibody bridged by M1.3.17 at 125 ng/mL
[6] = target: anti-VEGF/ANG2 antibody (IgG1 subclass with mutations P329G/L234A/L235A/I253A/H310A/H435A) (human) [IgG part: P01857]; test: sandwich ELISA in serum; M1.3.17-Bi capture on SA plate; tracer anti-human kappa M1.7.10-Dig; analyte 0.15625 ng/mL
[7] = target: anti-VEGF/ANG2 antibody (IgG1 subclass with mutations P329G/L234A/L235A/I253A/H310A/H435A) (human) [IgG part: P01857]; test: sandwich ELISA in serum; M1.3.17-Bi capture on SA plate; tracer anti-human kappa M1.7.10-Dig; analyte 10 ng/mL
[8] = target: cytokine (IL-2) antibody conjugate with the mutations P329G, L234A, L235A, I253A, H310A, and H435A; test: sandwich ELISA in serum; capture anti-IL2 antibody, tracer M1.7.24; conjugate 1250 ng/mL
[9] = target: cytokine (IL-2) antibody conjugate with the mutations P329G, L234A, L235A, I253A, H310A, and H435A; test: sandwich ELISA in serum; capture anti-IL2 antibody, tracer M1.7.24; conjugate 0 ng/mL (blank)
[10] = target: cytokine (IL-2) antibody conjugate with the mutations P329G, L234A, L235A, I253A, H310A, and H435A; test: sandwich ELISA in serum; capture anti-IL2 antibody, tracer M1.7.24; conjugate 312.5 ng/mL

signal [OD405 nm] [1]: 0.233 OD405 nm
signal [OD405 nm] [2]: 0.658 OD405 nm
signal [OD405 nm] [3]: 0.063 OD405 nm
signal [OD405 nm] [4]: 0.418 OD405 nm
signal [OD405 nm] [5]: 0.085 OD405 nm
signal [OD405 nm] [6]: 0.107 OD405 nm
signal [OD405 nm] [7]: 2.23 OD405 nm
B1: anti-variant (human) Fc-region antibody M1.3.17 (antibody, V domains shown)
VH: EVKLLESGGGLVQPGGSLKLSCAASGIDFRRYWMNWVRQAPGKGLEWIGEIDPDSSTINYTPSLKDKFIISRDNAKNTMYLQMRKVRSEDTALYYCARPYDYGAWFAYWGQGTLVTVSA
VL: QAVVTQESALTTSPGETVTLTCRSTTGAVTTSNYANWVQEKPDHLFTGLIGGTNKRAPGVPARFSGSLIGDKAALTITGAQTEDEAIYFCALWYSDHWVFGGGTKLTVL

signal [OD405 nm] [8]: 1.46 OD405 nm
signal [OD405 nm] [9]: 0.0475 OD405 nm
signal [OD405 nm] [10]: 0.451 OD405 nm
B2: anti-variant (human) Fc-region antibody M1.7.24 (antibody, V domains shown)
VH: B1 VH with I27F, R30S, D52T, M79L, R84I, A97V, Y108S
VL: B1 VL with T25S, D96N
